In patent US20140294758A1 (published 2014):

Legend:
Experiment in all cases: cell-based or functional assay
[1] = target: high affinity IL2 receptor on CTLL-2 mouse T cells (mouse) (UniProt P01590)
[2] = target: intermediate affinity IL2 receptor on TF-1β cells (UniProt P14784)
[3] = target: T1, intermediate affinity IL2 receptor on TF-1β cells (UniProt P14784 27-551; P31785 23-369)
T1 sequence (looked up) 1: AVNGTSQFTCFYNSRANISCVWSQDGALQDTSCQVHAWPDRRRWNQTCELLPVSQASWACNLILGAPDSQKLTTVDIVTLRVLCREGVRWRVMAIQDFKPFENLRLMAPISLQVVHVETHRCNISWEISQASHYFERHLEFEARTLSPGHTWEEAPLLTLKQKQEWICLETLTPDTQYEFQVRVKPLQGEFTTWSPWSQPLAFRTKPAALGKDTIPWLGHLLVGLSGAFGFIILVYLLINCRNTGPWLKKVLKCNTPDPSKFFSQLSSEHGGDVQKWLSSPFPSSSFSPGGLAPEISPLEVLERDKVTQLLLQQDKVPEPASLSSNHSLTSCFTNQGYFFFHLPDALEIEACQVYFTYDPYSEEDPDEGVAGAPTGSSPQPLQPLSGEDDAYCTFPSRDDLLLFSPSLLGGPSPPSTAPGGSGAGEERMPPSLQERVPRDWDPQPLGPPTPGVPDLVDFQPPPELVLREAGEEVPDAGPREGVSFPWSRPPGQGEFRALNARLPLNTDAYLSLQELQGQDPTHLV
T1 sequence (looked up) 2: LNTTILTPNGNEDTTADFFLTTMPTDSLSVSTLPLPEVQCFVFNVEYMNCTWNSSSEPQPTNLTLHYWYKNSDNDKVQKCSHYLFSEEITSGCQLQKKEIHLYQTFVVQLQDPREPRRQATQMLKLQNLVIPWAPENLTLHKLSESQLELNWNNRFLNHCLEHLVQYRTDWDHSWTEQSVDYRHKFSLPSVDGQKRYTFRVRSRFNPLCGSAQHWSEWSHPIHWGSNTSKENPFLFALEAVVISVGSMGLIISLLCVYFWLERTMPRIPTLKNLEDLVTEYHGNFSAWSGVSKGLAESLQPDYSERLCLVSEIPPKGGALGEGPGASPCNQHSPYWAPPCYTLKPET

[4] = target: T2, high affinity IL2 receptor on CTLL-2 mouse T cells (mouse, UniProt P01590 22-268; P16297 27-539; P34902 23-369)
T2 sequence (looked up) 1: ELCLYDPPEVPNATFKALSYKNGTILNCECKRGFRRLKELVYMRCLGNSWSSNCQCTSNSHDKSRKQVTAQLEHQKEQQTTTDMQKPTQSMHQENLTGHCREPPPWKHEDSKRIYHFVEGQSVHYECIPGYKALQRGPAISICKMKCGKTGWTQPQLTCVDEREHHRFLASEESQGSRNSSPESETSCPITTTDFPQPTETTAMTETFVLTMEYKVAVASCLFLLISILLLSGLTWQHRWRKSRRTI
T2 sequence (looked up) 2: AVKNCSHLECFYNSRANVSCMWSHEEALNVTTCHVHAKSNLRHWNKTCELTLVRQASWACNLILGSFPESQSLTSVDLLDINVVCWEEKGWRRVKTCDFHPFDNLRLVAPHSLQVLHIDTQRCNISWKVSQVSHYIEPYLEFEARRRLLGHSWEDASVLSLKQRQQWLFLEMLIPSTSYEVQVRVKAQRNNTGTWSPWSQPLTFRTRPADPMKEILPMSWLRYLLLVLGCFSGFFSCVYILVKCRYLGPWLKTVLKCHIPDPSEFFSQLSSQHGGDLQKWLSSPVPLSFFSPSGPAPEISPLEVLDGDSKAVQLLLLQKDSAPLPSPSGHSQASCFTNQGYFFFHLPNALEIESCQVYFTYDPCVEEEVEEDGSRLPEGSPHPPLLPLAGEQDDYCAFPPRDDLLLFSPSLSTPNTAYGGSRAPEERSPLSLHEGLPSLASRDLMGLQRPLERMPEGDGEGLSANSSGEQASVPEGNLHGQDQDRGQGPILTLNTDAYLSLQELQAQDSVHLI
T2 sequence (looked up) 3: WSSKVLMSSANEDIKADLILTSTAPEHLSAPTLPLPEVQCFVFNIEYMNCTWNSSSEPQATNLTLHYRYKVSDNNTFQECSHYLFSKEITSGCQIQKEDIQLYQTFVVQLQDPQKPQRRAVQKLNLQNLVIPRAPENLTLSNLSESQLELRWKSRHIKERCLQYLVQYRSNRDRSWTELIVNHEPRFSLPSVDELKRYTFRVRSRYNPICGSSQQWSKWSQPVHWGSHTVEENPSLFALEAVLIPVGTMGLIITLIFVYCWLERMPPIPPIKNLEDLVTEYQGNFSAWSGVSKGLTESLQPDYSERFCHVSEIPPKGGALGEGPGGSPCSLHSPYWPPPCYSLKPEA

ch14.18-IL2-H heavy chain fusion (H-fusion with a chimeric 14.18)
Relative Activity High aff/Inter Aff (high affinity part) [1]: 1
Selectivity for High Affinity Receptor [1]: 1
Relative Activity High aff/Inter Aff (intermediate affinity part) [2]: 1

B1: 14.18-IL2-L containing SEQ ID NO: 5 (other)
light: EIVMTQSPATLSVSPGERATLSCRSSQSLVHRNGNTYLHWYLQKPGQSPKLLIHKVSNRFSGVPDRFSGSGSGTDFTLKISRVEAEDLGVYFCSQSTHVPPLTFGAGTKLELKRTVAAPSVFIFPPSDEQLKSGTASVVCLLNNFYPREAKVQWKVDNALQSGNSQESVTEQDSKDSTYSLSSTLTLSKADYEKHKVYACEVTHQGLSSPVTKSFNRGECAPTSTQLQLEHLLLDLQMILNGINNYKNPKLTRMLTFKFYMPKKATELKHLQCLEEELKPLEEVLNLAQSKNFHLRPRDLISNINVIVLELKGSETTFMCEYADETATIVEFLNRWITFCQSIISTLT
VH: EVQLLQSGPELEKPGASVMISCKASGSSFTGYNMNWVRQNIGKSLEWIGAIDPYYGGTSYNQKFKGRATLTVDKSSSTAYMHLKSLTSEDSAVYYCVSGMEYWGQGTSVTVSS
Relative Activity High aff/Inter Aff (intermediate affinity part) [3]: 0.01
TF-1β (Int aff) ED50 [3]: > 0.5 mg/L
Relative Activity High aff/Inter Aff (high affinity part) [4]: 1
Selectivity for High Affinity Receptor [4]: > 100

B2: 14.18-IL2-L containing SEQ ID NO: 6 (other)
light: IVMTQSPATLSVSPGERATLSCRSSQSLVHRNGNTYLHWYLQKPGQSPKLLIHKVSNRFSGVPDRFSGSGSGTDFTLKISRVEAEDLGVYFCSQSTHVPPLTFGAGTKLELKRTVAAPSVFIFPPSDEQLKSGTASVVCLLNNFYPREAKVQWKVDNALQSGNSQESVTEQDSKDSTYSLSSTLTLSKADYEKHKVYACEVTHQGLSSPVTKSFNRGECTQLQLEHLLLDLQMILNGINNYKNPKLTRMLTFKFYMPKKATELKHLQCLEEELKPLEEVLNLAQSKNFHLRPRDLISNINVIVLELKGSETTFMCEYADETATIVEFLNRWITFCQSIISTLT
VH: EVQLLQSGPELEKPGASVMISCKASGSSFTGYNMNWVRQNIGKSLEWIGAIDPYYGGTSYNQKFKGRATLTVDKSSSTAYMHLKSLTSEDSAVYYCVSGMEYWGQGTSVTVSS
Relative Activity High aff/Inter Aff (intermediate affinity part) [3]: 0.01
TF-1β (Int aff) ED50 [3]: > 0.5 mg/L
Relative Activity High aff/Inter Aff (high affinity part) [4]: 1
Selectivity for High Affinity Receptor [4]: > 100
